Experimental data taken from patent US11634486B2, “Anti-SEZ6L2 antibodies and antibody drug conjugates” (Bluefin BioMedicine, Inc., priority 2016, dated 2023).

T1: SEZ6 (293-SEZ6) (Homo sapiens, UniProt Q53EL9)
T1 construct: expressed in transfected cells; host or cells: HEK 293
T1 sequence (Q53EL9 20-994): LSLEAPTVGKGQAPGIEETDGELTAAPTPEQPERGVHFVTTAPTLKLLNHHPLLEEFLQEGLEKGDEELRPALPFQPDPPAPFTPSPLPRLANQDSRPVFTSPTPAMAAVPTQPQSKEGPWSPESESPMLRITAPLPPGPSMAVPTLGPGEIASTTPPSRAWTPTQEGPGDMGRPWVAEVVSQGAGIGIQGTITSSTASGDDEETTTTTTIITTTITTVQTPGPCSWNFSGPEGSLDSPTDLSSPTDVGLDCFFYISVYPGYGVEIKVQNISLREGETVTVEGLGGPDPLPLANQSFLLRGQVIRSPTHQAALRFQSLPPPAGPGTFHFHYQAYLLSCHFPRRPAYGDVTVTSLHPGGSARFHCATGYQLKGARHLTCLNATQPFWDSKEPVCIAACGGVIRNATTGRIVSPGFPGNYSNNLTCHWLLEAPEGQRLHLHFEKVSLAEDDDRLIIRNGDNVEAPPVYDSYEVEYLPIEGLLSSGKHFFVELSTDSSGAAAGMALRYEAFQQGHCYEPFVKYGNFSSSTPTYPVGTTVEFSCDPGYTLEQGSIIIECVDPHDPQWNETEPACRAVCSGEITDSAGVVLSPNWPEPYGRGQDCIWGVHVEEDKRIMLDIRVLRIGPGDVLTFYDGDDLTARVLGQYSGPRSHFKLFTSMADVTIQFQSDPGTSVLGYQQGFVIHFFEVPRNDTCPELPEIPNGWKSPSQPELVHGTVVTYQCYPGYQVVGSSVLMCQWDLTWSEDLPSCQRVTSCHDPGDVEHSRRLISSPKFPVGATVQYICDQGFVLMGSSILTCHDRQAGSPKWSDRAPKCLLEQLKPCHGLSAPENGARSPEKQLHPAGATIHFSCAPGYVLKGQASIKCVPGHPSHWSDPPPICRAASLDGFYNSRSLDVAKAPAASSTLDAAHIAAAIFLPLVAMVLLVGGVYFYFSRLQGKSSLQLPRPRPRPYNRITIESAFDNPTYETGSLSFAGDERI

T2: SEZ6L (293-SEZ6L) (Homo sapiens, UniProt Q9BYH1)
T2 construct: expressed in transfected cells; host or cells: HEK 293
T2 sequence (Q9BYH1 29-1024): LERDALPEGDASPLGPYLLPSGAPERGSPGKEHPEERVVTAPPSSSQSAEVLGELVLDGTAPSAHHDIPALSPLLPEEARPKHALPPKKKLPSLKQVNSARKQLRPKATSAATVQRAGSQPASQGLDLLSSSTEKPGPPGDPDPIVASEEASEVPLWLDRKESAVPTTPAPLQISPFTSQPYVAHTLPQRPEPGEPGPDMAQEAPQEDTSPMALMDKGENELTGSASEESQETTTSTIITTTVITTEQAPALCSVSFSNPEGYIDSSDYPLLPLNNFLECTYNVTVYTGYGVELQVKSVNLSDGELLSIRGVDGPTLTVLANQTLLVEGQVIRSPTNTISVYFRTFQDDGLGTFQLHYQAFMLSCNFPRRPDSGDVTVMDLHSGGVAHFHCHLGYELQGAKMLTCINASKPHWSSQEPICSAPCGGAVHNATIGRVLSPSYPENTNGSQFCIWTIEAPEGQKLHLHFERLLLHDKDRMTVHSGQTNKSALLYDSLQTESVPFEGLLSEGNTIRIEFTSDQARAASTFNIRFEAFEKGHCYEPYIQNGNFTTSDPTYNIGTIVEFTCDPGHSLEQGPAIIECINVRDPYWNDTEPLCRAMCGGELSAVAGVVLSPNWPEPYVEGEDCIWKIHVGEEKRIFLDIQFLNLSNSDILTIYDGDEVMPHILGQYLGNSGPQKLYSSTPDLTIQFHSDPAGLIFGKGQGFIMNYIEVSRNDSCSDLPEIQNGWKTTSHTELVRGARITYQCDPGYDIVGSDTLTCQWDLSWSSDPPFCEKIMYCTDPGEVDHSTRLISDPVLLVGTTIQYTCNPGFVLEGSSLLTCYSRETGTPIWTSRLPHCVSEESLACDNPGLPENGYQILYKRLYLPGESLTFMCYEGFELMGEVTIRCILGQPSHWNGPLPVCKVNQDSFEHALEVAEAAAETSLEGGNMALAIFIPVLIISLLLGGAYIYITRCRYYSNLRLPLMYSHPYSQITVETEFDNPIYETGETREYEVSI

B1: 3E2-PBD (conjugate)
VH: EVQLVESGGGLVQPGGSLKLSCAASGFSFNTITMNWVRQASGKGLEWVGRIRSKSNNYATYYADAVKDRFTISRDDSKNTAYLQMNSLKTEDTAVYYCVRGIFSGYVYAMDYWGQGTLVTVSSA
VL: DVVMTQSPLSLPVTVGQPASISCRSSQSIVHSNGNTYLEWFQQRPGQSPRVLIYKVSNRFSGVPDRFSGSGSGTDFTLKISRVEAEDVGVYYCFQGSHVPYTFGGGTKLEIKR
B2: 3B6: human anti-SEZ6L2 antibody, VH SEQ ID NO: 109, VL SEQ ID NO: 113 (antibody, V domains shown)
VH: QVQLVQSGAEVKKPGASVKVSCKASGYTFTAYYMHWVRQAPGQGLEWMGWINPNSGGTNYAQKFQGRVTMTRDTSIDTAYLDLSRLRSDDTAVYYCAKDSGYDWYFDIWGRGTLVTVSSA
VL: EIVLTQSPATLSLSPGERATLSCRASQNISSYLAWYQQKPGQAPRLLIYDASNRATGIPARFSGSGSGTDFTLTISSLEPEDFAVFYCQQHSNWPPLTFGGGTKVEIKR
B3: 16H8: humanized anti-SEZ6L2 antibody, VH SEQ ID NO: 1, VL SEQ ID NO: 5 (antibody, V domains shown)
VH: QIQLVQPGAEVKKPGASVKVSCKASGYTFTSYWMYWVRQAPGQGLEWMGAIYPRDSDTSYNQKFKGRVTMTRVTSTSTVYMELSSLRSEDTAVYYCTRGDYYYGSSYYAMDYWGQGTTVTVSSA
VL: DIVMTQSPLSLPVTPGEPASISCSSSKSLLHSNGITYLYWYLQKPGQSPQLLIYRMSNLASGVPDRFSGSGSGTDFTLKISRVEAEDVGVYYCAQMLERPYTFGQGTKVEIKR
B4: 3E2: humanized anti-SEZ6L2 antibody, VH SEQ ID NO: 9, VL SEQ ID NO: 13 (antibody, V domains shown)
VH: B1 VH
VL: B1 VL
B5: 2E4: humanized anti-SEZ6L2 antibody, VH SEQ ID NO: 25, VL SEQ ID NO: 29 (antibody, V domains shown)
VH: EVKLVESGGVLVKPGGSLRLSCAASGFTFSKYAMSWVRQAPGKGLEWVSTISSGGSYTYYPDSVKGRFTISRDNARNSLYLQMNSLRAEDTAIYYCTREGGYDEGYAMDYWGQGTTVTVSSA
VL: DIVMTQSPDSLAVSLGERATINCRSSQSLVHSYGNTYLHWYQQKPGQPPKLLIYKVSNRFSGVPDRFSGSGSGTDFTLTISSLQAEDVAVYFCSQSTHFRTFGGGTKVEIKR
B6: 20C4: humanized anti-SEZ6L2 antibody, VH SEQ ID NO: 17, VL SEQ ID NO: 21 (antibody, V domains shown)
VH: EVQLVESGGGLVQPGGSLRLSCAASGFTFTDYYMSWVRQAPGKGLEWVALIRNKANGYTTEYSASVKGRFTISRDNSKNSLYLQMNSLRAEDTAVYYCARNGLYGLFAYWGQGTLVTVSSA
VL: DIVMTQTPLSIPVTPGEPASISCRSSTSLLESSGKHRLYWYLQKPGQSPQLLIYYMSNLASGVPDRFSGSGSGTDFTLKISRVEAEDFGVYYCMQSLEYPLTFGAGTKVEIKR

System: small cell lung cancer cell line NCI-H209
Assay: ADC combined with PARP inhibitor, cell viability
Format: cell-based, human
Conditions: 10 pM conjugate plus olaparib 10 nM to 10 uM, six days
Protocol: Briefly, the small cell lung cancer cell line NCI-H209, which expresses ˜10,000 copies of SEZ6L2 on the cell surface, was seeded onto 96 well plate at 5000 cells/well Immediately after seeding, 10 pM of 3E2-PBD or isotype control hIgG-PBD (bearing a drug antibody ratio (DAR) of 1.7 and 2.5 respectively) were added to the wells in complete culture medium. A PARP inhibitor (olaparib) was then added to these wells such that the final concentration ranged from 10 nM to 10 uM. The PARP inhibitor was also tested on cells without an ADC. Each treatment was replicated in 2 wells and after six days, the PARP inhibitor plus modulator-mediated PBD cytotoxicity was assessed by quantifying the remaining number of live cells using Cell Titer Glo™. Cell viability was graphed by Prism™ using ratio of cell viability of test conditions to that of control wells treated with growth medium only.

Row | Molecule | percent viable cells, conjugate combined with PARP inhibitor
1 | B1 | additive effect

Molecular target: T1, SEZ6 (293-SEZ6)
Assay: Flow cytometry specificity on overexpressing 293 cells
Format: binding
Conditions: primary antibody 1 ug/ml, live cells on ice
Protocol: (§1) In order to assess whether SEZ6L2 antibody modulators immunospecifically associate with human SEZ6L2, and to determine whether the same modulators cross-react with SEZ6 and SEZ6L, flow cytometry was performed using a MACSquant™ as per the manufacturer's instructions. More particularly, modulators were tested for cross reactivity to cell lines that overexpress the human homologs of SEZ6 (293-SEZ6), SEZ6L (293-SEZ6L), and SEZ6L2 (293-SEZ6L2).
(§2) Briefly, staining for flow cytometry was performed in lx cold PBS with 0.5% BSA. Primary antibodies (1 ug/ml) were incubated with live cells on ice for one hour. After washing in the same buffer, cells were incubated with Alexa Fluro® 488-conjugated anti-human IgG secondary antibody @1:1000 (709-546-149, Jackson ImmunoResearch) on ice in the dark. After a 30 minute incubation, cells were washed in the same buffer and re-suspended in buffer plus propidium iodide (PI) to identify live cells. As a negative control, cells were incubated with secondary antibody alone. Acquisition of the data was performed on a MACSQuant® Flow Cytometer (Miltenyi Biotec) and analyzed with FlowJo software.

Row | Molecule | binding to 293-SEZ6 cells by flow cytometry
2 | B2 | no detectable binding
3 | B3 | no detectable binding
4 | B4 | no detectable binding
5 | B5 | no detectable binding
6 | B6 | no detectable binding

Molecular target: T2, SEZ6L (293-SEZ6L)
Assay: as above
Format: binding
Conditions: primary antibody 1 ug/ml, live cells on ice
Protocol: as §1, §2

Row | Molecule | binding to 293-SEZ6L cells by flow cytometry
7 | B2 | no detectable binding
8 | B3 | no detectable binding
9 | B4 | no detectable binding
10 | B5 | no detectable binding
11 | B6 | no detectable binding

Molecular target: T3, SEZ6L2 (293-SEZ6L2) (Homo sapiens, UniProt Q6UXD5)
T3 construct: cDNA encoding the complete mature human SEZ6L2 protein containing a C-terminal FLAG tag was purchased from Origene; FLAG (C); host or cells: HEK 293
Assay: as above
Format: binding
Conditions: primary antibody 1 ug/ml, live cells on ice
Protocol: as §1, §2

T3 sequence (Q6UXD5 28-910): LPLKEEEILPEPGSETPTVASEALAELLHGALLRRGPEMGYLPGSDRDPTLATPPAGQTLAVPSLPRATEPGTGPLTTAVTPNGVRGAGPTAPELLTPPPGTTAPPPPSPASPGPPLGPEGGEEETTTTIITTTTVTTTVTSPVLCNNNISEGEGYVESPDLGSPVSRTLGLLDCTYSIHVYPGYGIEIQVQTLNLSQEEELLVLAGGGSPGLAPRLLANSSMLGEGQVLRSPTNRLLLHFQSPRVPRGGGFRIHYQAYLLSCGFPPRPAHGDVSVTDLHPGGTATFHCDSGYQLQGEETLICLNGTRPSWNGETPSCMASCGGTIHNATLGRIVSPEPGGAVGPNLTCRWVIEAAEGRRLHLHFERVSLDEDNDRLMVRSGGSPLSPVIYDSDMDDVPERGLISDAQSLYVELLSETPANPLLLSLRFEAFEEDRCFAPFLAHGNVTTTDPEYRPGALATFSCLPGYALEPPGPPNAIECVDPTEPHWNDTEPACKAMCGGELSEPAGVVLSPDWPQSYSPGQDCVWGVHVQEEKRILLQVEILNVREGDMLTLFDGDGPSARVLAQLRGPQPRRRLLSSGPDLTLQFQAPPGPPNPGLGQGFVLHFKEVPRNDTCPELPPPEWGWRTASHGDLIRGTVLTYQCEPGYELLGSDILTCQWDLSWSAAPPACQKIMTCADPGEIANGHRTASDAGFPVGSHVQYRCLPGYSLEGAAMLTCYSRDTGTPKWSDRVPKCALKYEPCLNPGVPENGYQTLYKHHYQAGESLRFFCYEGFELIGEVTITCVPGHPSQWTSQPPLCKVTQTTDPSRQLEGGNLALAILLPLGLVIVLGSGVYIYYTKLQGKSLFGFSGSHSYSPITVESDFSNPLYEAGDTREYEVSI

Row | Molecule | binding to 293-SEZ6L2 cells by flow cytometry
12 | B2 | recognize a cell line that overexpresses SEZ6L2
13 | B3 | recognize a cell line that overexpresses SEZ6L2
14 | B4 | recognize a cell line that overexpresses SEZ6L2
15 | B5 | recognize a cell line that overexpresses SEZ6L2
16 | B6 | recognize a cell line that overexpresses SEZ6L2

Molecular target: T4, Human SEZ6L2 (Homo sapiens, UniProt Q6UXD5)
T4 construct: a protein composed of the extracellular portion of the human SEZ6L2 protein; His6 (C); made in house; host or cells: CHO (ExpiCHO)
Assay: ForteBio Octet binding kinetics, Protein A biosensors
Conditions: not given
Protocol: (§3) Affinity: The affinity of antibodies to various recombinant SEZ6L2 molecules was determined on an Octet Red (Pall, ForteBio) instrument. After loading reagents into a 96-well plate, the Octet Red with Protein A-conjugated biosensors was programmed as follows: 30 seconds for baseline #1; 120 seconds to immobilize the antibody; 30 seconds for baseline #2; 300 seconds for association of antibody to recombinant SEZ6L2; and 300-600 seconds for dissociation of recombinant SEZ6L2 from the antibody.
(§4) Table 10, below, indicates the KD, Kon, and Koff values for human antibodies 1A1, 3A1, 3A2, and 3A3 and humanized antibodies 16H8, 3E2, 20C4, and 2E4, for both human SEZ6L2 and cynomolgus monkey SEZL2, as determined by ForteBio Data Analysis 9.0 Kinetics software. Briefly, within the ForteBio Octet red96 instrument, Protein A biosensors were incubated with fixed amounts of the test antibody. The biosensors with bound antibody were then rinsed and dipped into wells containing varying concentrations of the recombinant target protein. Approximately 5 different concentrations were independently tested. After a period of time, the biosensors were dipped into buffer to allow the target protein to dissociate from the antibody. The ForteBio software package generated a best-fit curve for each of the profiles of the varying concentrations of target protein. The calculated affinity measurements were analyzed, and the rate constant values from the middle of the linear range were chosen.

T4 sequence (Q6UXD5 28-844 limits assumed): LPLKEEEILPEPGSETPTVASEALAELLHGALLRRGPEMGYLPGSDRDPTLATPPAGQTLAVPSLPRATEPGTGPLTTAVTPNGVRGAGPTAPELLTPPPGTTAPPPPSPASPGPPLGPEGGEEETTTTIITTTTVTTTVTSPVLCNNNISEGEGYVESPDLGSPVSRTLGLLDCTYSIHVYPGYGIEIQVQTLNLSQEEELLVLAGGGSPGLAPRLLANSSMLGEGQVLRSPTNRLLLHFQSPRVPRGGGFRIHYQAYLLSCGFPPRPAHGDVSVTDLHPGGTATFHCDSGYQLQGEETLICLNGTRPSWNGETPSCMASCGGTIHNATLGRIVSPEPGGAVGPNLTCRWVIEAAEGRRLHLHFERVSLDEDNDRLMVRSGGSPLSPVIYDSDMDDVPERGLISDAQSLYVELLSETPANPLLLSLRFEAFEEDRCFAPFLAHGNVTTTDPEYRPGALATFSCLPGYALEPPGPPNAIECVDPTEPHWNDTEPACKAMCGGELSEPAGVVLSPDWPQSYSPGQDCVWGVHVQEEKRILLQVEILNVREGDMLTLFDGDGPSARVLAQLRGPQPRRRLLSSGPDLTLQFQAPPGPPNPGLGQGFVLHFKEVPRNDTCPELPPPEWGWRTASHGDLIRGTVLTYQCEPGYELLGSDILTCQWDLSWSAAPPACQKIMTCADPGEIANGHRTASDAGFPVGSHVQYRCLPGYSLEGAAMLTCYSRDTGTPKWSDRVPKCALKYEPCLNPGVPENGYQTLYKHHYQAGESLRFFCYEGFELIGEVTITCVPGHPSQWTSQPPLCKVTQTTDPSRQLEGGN

Row | Molecule | K(off) | K(on)
17 | B3 | 2.20E−04 | 6.03E+05
18 | B4 | 3.19E−03 | 1.33E+06
19 | B5 | 1.33E−03 | 2.05E+05
20 | B6 | 2.20E−04 | 6.35E+04

System: Cynomolgus monkey SEZ6L2
Assay: as above
Conditions: not given
Protocol: as §3, §4

Row | Molecule | K(off) | K(on)
21 | B4 | 2.95E−03 | 1.37E+06
22 | B5 | 1.94E−03 | 1.63E+05
23 | B6 | 3.18E−04 | 1.05E+05
